B1: Zyxin (Homo sapiens), Q15942 (parent)
chain: MAAPRPSPAISVSVSAPAFYAPQKKFGPVVAPKPKVNPFRPGDSEPPPAPGAQRAQMGRVGEIPPPPPEDFPLPPPPLAGDGDDAEGALGGAFPPPPPPIEESFPPAPLEEEIFPSPPPPPEEEGGPEAPIPPPPQPREKVSSIDLEIDSLSSLLDDMTKNDPFKARVSSGYVPPPVATPFSSKSSTKPAAGGTAPLPPWKSPSSSQPLPQVPAPAQSQTQFHVQPQPQPKPQVQLHVQSQTQPVSLANTQPRGPPASSPAPAPKFSPVTPKFTPVASKFSPGAPGGSGSQPNQKLGHPEALSAGTGSPQPPSFTYAQQREKPRVQEKQHPVPPPAQNQNQVRSPGAPGPLTLKEVEELEQLTQQLMQDMEHPQRQNVAVNELCGRCHQPLARAQPAVRALGQLFHIACFTCHQCAQQLQGQQFYSLEGAPYCEGCYTDTLEKCNTCGEPITDRMLRATGKAYHPHCFTCVVCARPLEGTSFIVDQANRPHCVPDYHKQYAPRCSVCSEPIMPEPGRDETVRVVALDKNFHMKCYKCEDCGKPLSIEADDNGCFPLDGHVLCRKCHTARAQT

Variants of: B1
Conditions: with actn1_human ACTN1, P12814
Sequence of actn1_human ACTN1, P12814 (P12814 whole entry): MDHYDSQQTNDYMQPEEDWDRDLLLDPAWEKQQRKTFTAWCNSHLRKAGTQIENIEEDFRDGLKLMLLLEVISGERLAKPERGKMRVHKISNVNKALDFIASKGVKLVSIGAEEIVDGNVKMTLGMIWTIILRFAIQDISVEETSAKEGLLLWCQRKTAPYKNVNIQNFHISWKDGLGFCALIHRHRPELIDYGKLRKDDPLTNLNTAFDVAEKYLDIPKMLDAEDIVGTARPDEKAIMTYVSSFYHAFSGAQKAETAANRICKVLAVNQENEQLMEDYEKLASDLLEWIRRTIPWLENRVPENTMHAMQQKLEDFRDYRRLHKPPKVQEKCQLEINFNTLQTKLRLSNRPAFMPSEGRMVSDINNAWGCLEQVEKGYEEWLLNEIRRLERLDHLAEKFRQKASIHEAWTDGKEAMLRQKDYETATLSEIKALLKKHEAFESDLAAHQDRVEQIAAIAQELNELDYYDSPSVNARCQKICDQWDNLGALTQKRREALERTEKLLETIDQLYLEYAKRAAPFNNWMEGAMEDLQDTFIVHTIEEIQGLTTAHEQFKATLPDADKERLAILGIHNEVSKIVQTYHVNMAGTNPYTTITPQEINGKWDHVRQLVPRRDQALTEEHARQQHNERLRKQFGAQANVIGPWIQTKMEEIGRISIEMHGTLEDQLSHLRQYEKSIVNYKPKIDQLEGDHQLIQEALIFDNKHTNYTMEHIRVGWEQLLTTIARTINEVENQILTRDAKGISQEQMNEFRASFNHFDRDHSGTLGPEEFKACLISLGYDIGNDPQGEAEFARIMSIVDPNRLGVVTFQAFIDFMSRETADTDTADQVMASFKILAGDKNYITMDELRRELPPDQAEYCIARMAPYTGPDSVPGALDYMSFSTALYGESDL

Variant | effect of a mutation on the interaction
MAAPRPSPAISVSVSAPAFYAPQKKSGPVVAPKPKVNPFRPGDSEPPPAPGAQRAQMGRVGEIPPPPPEDFPLPPPPLAGDGDDAEGALGGAFPPPPPPIEESFPPAPLEEEIFPSPPPPPEEEGGPEAPIPPPPQPREKVSSIDLEIDSLSSLLDDMTKNDPFKARVSSGYVPPPVATPFSSKSSTKPAAGGTAPLPPWKSPSSSQPLPQVPAPAQSQTQFHVQPQPQPKPQVQLHVQSQTQPVSLANTQPRGPPASSPAPAPKFSPVTPKFTPVASKFSPGAPGGSGSQPNQKLGHPEALSAGTGSPQPPSFTYAQQREKPRVQEKQHPVPPPAQNQNQVRSPGAPGPLTLKEVEELEQLTQQLMQDMEHPQRQNVAVNELCGRCHQPLARAQPAVRALGQLFHIACFTCHQCAQQLQGQQFYSLEGAPYCEGCYTDTLEKCNTCGEPITDRMLRATGKAYHPHCFTCVVCARPLEGTSFIVDQANRPHCVPDYHKQYAPRCSVCSEPIMPEPGRDETVRVVALDKNFHMKCYKCEDCGKPLSIEADDNGCFPLDGHVLCRKCHTARAQT [F26S] | decreasing interaction
MAAPRPSPAISVSVSAPAFYAPQKKFGPVVAPKPKVNPSRPGDSEPPPAPGAQRAQMGRVGEIPPPPPEDFPLPPPPLAGDGDDAEGALGGAFPPPPPPIEESFPPAPLEEEIFPSPPPPPEEEGGPEAPIPPPPQPREKVSSIDLEIDSLSSLLDDMTKNDPFKARVSSGYVPPPVATPFSSKSSTKPAAGGTAPLPPWKSPSSSQPLPQVPAPAQSQTQFHVQPQPQPKPQVQLHVQSQTQPVSLANTQPRGPPASSPAPAPKFSPVTPKFTPVASKFSPGAPGGSGSQPNQKLGHPEALSAGTGSPQPPSFTYAQQREKPRVQEKQHPVPPPAQNQNQVRSPGAPGPLTLKEVEELEQLTQQLMQDMEHPQRQNVAVNELCGRCHQPLARAQPAVRALGQLFHIACFTCHQCAQQLQGQQFYSLEGAPYCEGCYTDTLEKCNTCGEPITDRMLRATGKAYHPHCFTCVVCARPLEGTSFIVDQANRPHCVPDYHKQYAPRCSVCSEPIMPEPGRDETVRVVALDKNFHMKCYKCEDCGKPLSIEADDNGCFPLDGHVLCRKCHTARAQT [F39S] | increasing interaction
MAAPRPSPAISVSVSAPAFYAPQKKFGPVVSPKPKVNPFRPGDSEPPPAPGAQRAQMGRVGEIPPPPPEDFPLPPPPLAGDGDDAEGALGGAFPPPPPPIEESFPPAPLEEEIFPSPPPPPEEEGGPEAPIPPPPQPREKVSSIDLEIDSLSSLLDDMTKNDPFKARVSSGYVPPPVATPFSSKSSTKPAAGGTAPLPPWKSPSSSQPLPQVPAPAQSQTQFHVQPQPQPKPQVQLHVQSQTQPVSLANTQPRGPPASSPAPAPKFSPVTPKFTPVASKFSPGAPGGSGSQPNQKLGHPEALSAGTGSPQPPSFTYAQQREKPRVQEKQHPVPPPAQNQNQVRSPGAPGPLTLKEVEELEQLTQQLMQDMEHPQRQNVAVNELCGRCHQPLARAQPAVRALGQLFHIACFTCHQCAQQLQGQQFYSLEGAPYCEGCYTDTLEKCNTCGEPITDRMLRATGKAYHPHCFTCVVCARPLEGTSFIVDQANRPHCVPDYHKQYAPRCSVCSEPIMPEPGRDETVRVVALDKNFHMKCYKCEDCGKPLSIEADDNGCFPLDGHVLCRKCHTARAQT [A31S] | decreasing interaction
MAAPRPSPAISVSVSAPAFYAPQKKFGPSVAPKPKVNPFRPGDSEPPPAPGAQRAQMGRVGEIPPPPPEDFPLPPPPLAGDGDDAEGALGGAFPPPPPPIEESFPPAPLEEEIFPSPPPPPEEEGGPEAPIPPPPQPREKVSSIDLEIDSLSSLLDDMTKNDPFKARVSSGYVPPPVATPFSSKSSTKPAAGGTAPLPPWKSPSSSQPLPQVPAPAQSQTQFHVQPQPQPKPQVQLHVQSQTQPVSLANTQPRGPPASSPAPAPKFSPVTPKFTPVASKFSPGAPGGSGSQPNQKLGHPEALSAGTGSPQPPSFTYAQQREKPRVQEKQHPVPPPAQNQNQVRSPGAPGPLTLKEVEELEQLTQQLMQDMEHPQRQNVAVNELCGRCHQPLARAQPAVRALGQLFHIACFTCHQCAQQLQGQQFYSLEGAPYCEGCYTDTLEKCNTCGEPITDRMLRATGKAYHPHCFTCVVCARPLEGTSFIVDQANRPHCVPDYHKQYAPRCSVCSEPIMPEPGRDETVRVVALDKNFHMKCYKCEDCGKPLSIEADDNGCFPLDGHVLCRKCHTARAQT [V29S] | decreasing interaction

From IntAct's records for PubMed 11423549
